Patent US20210139548A1 (published 2021)
One block for each binder: values may come before it. *1 amine or outer side, *2 acyl side, *3 side chain or, on linkers, in order; H or OH if unused. Side-chain parts run from the residue outwards. The star is where a group is joined. C18 diacid = O=C(O)CCCCCCCCCCCCCCCCC(=O)*; γGlu = O=C(O)[C@H](CCC(=O)[*:2])N[*:1]; Isovaleryl = CC(C)CC(=O)*; AEEA = NCCOCCOCC(=O)O

Target: T1, human neuropeptide Y2 receptor (human, UniProt P49146 1-381)
T1 construct: whole, on cells; also called hNPY2 receptor; hNPY2-R
T1 sequence (looked up): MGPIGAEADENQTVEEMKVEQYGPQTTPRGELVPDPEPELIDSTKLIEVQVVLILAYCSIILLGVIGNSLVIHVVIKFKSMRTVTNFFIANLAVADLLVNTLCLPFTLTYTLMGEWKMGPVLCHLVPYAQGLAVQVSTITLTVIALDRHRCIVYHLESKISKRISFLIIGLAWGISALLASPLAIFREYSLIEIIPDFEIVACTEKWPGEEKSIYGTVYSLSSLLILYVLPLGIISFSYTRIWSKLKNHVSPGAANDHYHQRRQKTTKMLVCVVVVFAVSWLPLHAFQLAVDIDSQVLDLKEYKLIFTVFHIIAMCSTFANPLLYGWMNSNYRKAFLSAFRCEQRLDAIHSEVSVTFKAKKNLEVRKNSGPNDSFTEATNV
Assay: radioligand competition (125I-PYY(1-36)), hNPY2R membranes
Method: The filtration RLB assay was carried out in 96-well plates in a final volume of 100 μl per well. Freeze-dried test peptides were dissolved in 100% dimethyl sulfoxide (DMSO) to stock solutions of 1 mM and serial dilutions were performed in assay buffer (50 mM HEPES, 5 mM MgCl₂, 1 mM CaCl₂, pH 7.4) containing 0.2% ovalbumin. […] Next, 80 μL membranes (HTS066M, ChemiSCREEN™ Human Neuropeptide Y2 Receptor Membrane Preparation, CHEMICON) were added to each well to give a final protein concentration of 0.5 μg/well. The plates were sealed and incubated at room temperature for 2 hours in a plate shaker set at 400 rpm. The incubation was stopped by vacuum filtration onto 0.5% poly-ethylene amine (PEI) presoaked GF/C filters using a 96-well FilterMate™ harvester (Perkin Elmer) followed by four washes with 300 μl/well ice-cold wash buffer (50 mM HEPES, 500 mM NaCl, pH7.4). Filter plates were then dried for 60 min at room temperature and the bottom of the plates was sealed with backing tape UniFilter-96. Finally, 50 μl/well scintillation counter cocktail (Microscint20, Packard) was added and the radioactivity was counted in the Packard TopCount NXT scintillation counter. IC₅₀ values (the half maximal inhibitory concentration of the agonist) were calculated by nonlinear regression analysis of sigmoidal dose-response curves.

- Ki: 1.43 nM
B3: Compound 4 (peptide)
peptide: Isovaleryl-APEK([AEEA-AEEA-γGlu-C18 diacid])PEEDASPEELQRYYVSLRHYYNWLQRQRY-NH2
SMILES: CC(C)CC(=O)N[C@@H](C)C(=O)N1CCC[C@H]1C(=O)N[C@@H](CCC(=O)O)C(=O)N[C@@H](CCCCNC(=O)COCCOCCNC(=O)COCCOCCNC(=O)CC[C@H](NC(=O)CCCCCCCCCCCCCCCCC(=O)O)C(=O)O)C(=O)N1CCC[C@H]1C(=O)N[C@@H](CCC(=O)O)C(=O)N[C@@H](CCC(=O)O)C(=O)N[C@@H](CC(=O)O)C(=O)N[C@@H](C)C(=O)N[C@@H](CO)C(=O)N1CCC[C@H]1C(=O)N[C@@H](CCC(=O)O)C(=O)N[C@@H](CCC(=O)O)C(=O)N[C@@H](CC(C)C)C(=O)N[C@@H](CCC(N)=O)C(=O)N[C@@H](CCCNC(=N)N)C(=O)N[C@@H](Cc1ccc(O)cc1)C(=O)N[C@@H](Cc1ccc(O)cc1)C(=O)N[C@H](C(=O)N[C@@H](CO)C(=O)N[C@@H](CC(C)C)C(=O)N[C@@H](CCCNC(=N)N)C(=O)N[C@@H](Cc1c[nH]cn1)C(=O)N[C@@H](Cc1ccc(O)cc1)C(=O)N[C@@H](Cc1ccc(O)cc1)C(=O)N[C@@H](CC(N)=O)C(=O)N[C@@H](Cc1c[nH]c2ccccc12)C(=O)N[C@@H](CC(C)C)C(=O)N[C@@H](CCC(N)=O)C(=O)N[C@@H](CCCNC(=N)N)C(=O)N[C@@H](CCC(N)=O)C(=O)N[C@@H](CCCNC(=N)N)C(=O)N[C@@H](Cc1ccc(O)cc1)C(N)=O)C(C)C

- Ki: 6.52 nM
B4: Compound 6 (peptide)
peptide: Isovaleryl-APEK([AEEA-AEEA-γGlu-C18 diacid])PEEEASPEELQRYYVSARHYYNWLTRQRY-NH2
SMILES: CC(C)CC(=O)N[C@@H](C)C(=O)N1CCC[C@H]1C(=O)N[C@@H](CCC(=O)O)C(=O)N[C@@H](CCCCNC(=O)COCCOCCNC(=O)COCCOCCNC(=O)CC[C@H](NC(=O)CCCCCCCCCCCCCCCCC(=O)O)C(=O)O)C(=O)N1CCC[C@H]1C(=O)N[C@@H](CCC(=O)O)C(=O)N[C@@H](CCC(=O)O)C(=O)N[C@@H](CCC(=O)O)C(=O)N[C@@H](C)C(=O)N[C@@H](CO)C(=O)N1CCC[C@H]1C(=O)N[C@@H](CCC(=O)O)C(=O)N[C@@H](CCC(=O)O)C(=O)N[C@@H](CC(C)C)C(=O)N[C@@H](CCC(N)=O)C(=O)N[C@@H](CCCNC(=N)N)C(=O)N[C@@H](Cc1ccc(O)cc1)C(=O)N[C@@H](Cc1ccc(O)cc1)C(=O)N[C@H](C(=O)N[C@@H](CO)C(=O)N[C@@H](C)C(=O)N[C@@H](CCCNC(=N)N)C(=O)N[C@@H](Cc1c[nH]cn1)C(=O)N[C@@H](Cc1ccc(O)cc1)C(=O)N[C@@H](Cc1ccc(O)cc1)C(=O)N[C@@H](CC(N)=O)C(=O)N[C@@H](Cc1c[nH]c2ccccc12)C(=O)N[C@@H](CC(C)C)C(=O)N[C@H](C(=O)N[C@@H](CCCNC(=N)N)C(=O)N[C@@H](CCC(N)=O)C(=O)N[C@@H](CCCNC(=N)N)C(=O)N[C@@H](Cc1ccc(O)cc1)C(N)=O)[C@@H](C)O)C(C)C

Second part, the binder before the results:

B1: Compound 1 (peptide)
peptide: Isovaleryl-APEK([AEEA-AEEA-γGlu-C18 diacid])PEEDAQPEELQEYYVSLRHYYNWLTRQRY-NH2
SMILES: CC(C)CC(=O)N[C@@H](C)C(=O)N1CCC[C@H]1C(=O)N[C@@H](CCC(=O)O)C(=O)N[C@@H](CCCCNC(=O)COCCOCCNC(=O)COCCOCCNC(=O)CC[C@H](NC(=O)CCCCCCCCCCCCCCCCC(=O)O)C(=O)O)C(=O)N1CCC[C@H]1C(=O)N[C@@H](CCC(=O)O)C(=O)N[C@@H](CCC(=O)O)C(=O)N[C@@H](CC(=O)O)C(=O)N[C@@H](C)C(=O)N[C@@H](CCC(N)=O)C(=O)N1CCC[C@H]1C(=O)N[C@@H](CCC(=O)O)C(=O)N[C@@H](CCC(=O)O)C(=O)N[C@@H](CC(C)C)C(=O)N[C@@H](CCC(N)=O)C(=O)N[C@@H](CCC(=O)O)C(=O)N[C@@H](Cc1ccc(O)cc1)C(=O)N[C@@H](Cc1ccc(O)cc1)C(=O)N[C@H](C(=O)N[C@@H](CO)C(=O)N[C@@H](CC(C)C)C(=O)N[C@@H](CCCNC(=N)N)C(=O)N[C@@H](Cc1c[nH]cn1)C(=O)N[C@@H](Cc1ccc(O)cc1)C(=O)N[C@@H](Cc1ccc(O)cc1)C(=O)N[C@@H](CC(N)=O)C(=O)N[C@@H](Cc1c[nH]c2ccccc12)C(=O)N[C@@H](CC(C)C)C(=O)N[C@H](C(=O)N[C@@H](CCCNC(=N)N)C(=O)N[C@@H](CCC(N)=O)C(=O)N[C@@H](CCCNC(=N)N)C(=O)N[C@@H](Cc1ccc(O)cc1)C(N)=O)[C@@H](C)O)C(C)C
- Ki: 2.5 nM

B2: Compound 5 (peptide)
peptide: Isovaleryl-APEK([AEEA-AEEA-γGlu-C18 diacid])PEEEVSPEELQRYYVSLRHYYNWLTRQRY-NH2
SMILES: CC(C)CC(=O)N[C@@H](C)C(=O)N1CCC[C@H]1C(=O)N[C@@H](CCC(=O)O)C(=O)N[C@@H](CCCCNC(=O)COCCOCCNC(=O)COCCOCCNC(=O)CC[C@H](NC(=O)CCCCCCCCCCCCCCCCC(=O)O)C(=O)O)C(=O)N1CCC[C@H]1C(=O)N[C@@H](CCC(=O)O)C(=O)N[C@@H](CCC(=O)O)C(=O)N[C@@H](CCC(=O)O)C(=O)N[C@H](C(=O)N[C@@H](CO)C(=O)N1CCC[C@H]1C(=O)N[C@@H](CCC(=O)O)C(=O)N[C@@H](CCC(=O)O)C(=O)N[C@@H](CC(C)C)C(=O)N[C@@H](CCC(N)=O)C(=O)N[C@@H](CCCNC(=N)N)C(=O)N[C@@H](Cc1ccc(O)cc1)C(=O)N[C@@H](Cc1ccc(O)cc1)C(=O)N[C@H](C(=O)N[C@@H](CO)C(=O)N[C@@H](CC(C)C)C(=O)N[C@@H](CCCNC(=N)N)C(=O)N[C@@H](Cc1c[nH]cn1)C(=O)N[C@@H](Cc1ccc(O)cc1)C(=O)N[C@@H](Cc1ccc(O)cc1)C(=O)N[C@@H](CC(N)=O)C(=O)N[C@@H](Cc1c[nH]c2ccccc12)C(=O)N[C@@H](CC(C)C)C(=O)N[C@H](C(=O)N[C@@H](CCCNC(=N)N)C(=O)N[C@@H](CCC(N)=O)C(=O)N[C@@H](CCCNC(=N)N)C(=O)N[C@@H](Cc1ccc(O)cc1)C(N)=O)[C@@H](C)O)C(C)C)C(C)C
- Ki: 14.8 nM

B5: Compound 3 (peptide)
peptide: Isovaleryl-APEK([AEEA-AEEA-γGlu-C18 diacid])PEEEASPAELQRYYVSLRHYYNWLTRQRY-NH2
SMILES: CC(C)CC(=O)N[C@@H](C)C(=O)N1CCC[C@H]1C(=O)N[C@@H](CCC(=O)O)C(=O)N[C@@H](CCCCNC(=O)COCCOCCNC(=O)COCCOCCNC(=O)CC[C@H](NC(=O)CCCCCCCCCCCCCCCCC(=O)O)C(=O)O)C(=O)N1CCC[C@H]1C(=O)N[C@@H](CCC(=O)O)C(=O)N[C@@H](CCC(=O)O)C(=O)N[C@@H](CCC(=O)O)C(=O)N[C@@H](C)C(=O)N[C@@H](CO)C(=O)N1CCC[C@H]1C(=O)N[C@@H](C)C(=O)N[C@@H](CCC(=O)O)C(=O)N[C@@H](CC(C)C)C(=O)N[C@@H](CCC(N)=O)C(=O)N[C@@H](CCCNC(=N)N)C(=O)N[C@@H](Cc1ccc(O)cc1)C(=O)N[C@@H](Cc1ccc(O)cc1)C(=O)N[C@H](C(=O)N[C@@H](CO)C(=O)N[C@@H](CC(C)C)C(=O)N[C@@H](CCCNC(=N)N)C(=O)N[C@@H](Cc1c[nH]cn1)C(=O)N[C@@H](Cc1ccc(O)cc1)C(=O)N[C@@H](Cc1ccc(O)cc1)C(=O)N[C@@H](CC(N)=O)C(=O)N[C@@H](Cc1c[nH]c2ccccc12)C(=O)N[C@@H](CC(C)C)C(=O)N[C@H](C(=O)N[C@@H](CCCNC(=N)N)C(=O)N[C@@H](CCC(N)=O)C(=O)N[C@@H](CCCNC(=N)N)C(=O)N[C@@H](Cc1ccc(O)cc1)C(N)=O)[C@@H](C)O)C(C)C
- Ki: 3.14 nM
